This note sets out measurements from paper PMC8444619.

Experiment in all cases: cross-linking
Assay [1] concerns the target HA-tagged GST V125-TAG (azF) (E. coli) (UniProt P0A9D2).
Assay [2] deals with NS4B^HA (HA-tagged HCV NS4B, wild type, in NS3-5B-4B^HA) (hepatitis C virus).
Assay [3] has as its target NS4B^HA A180-TAG (azF) (hepatitis C virus).
The target of assay [4] is NS4B^HA I96-TAG (azF) (hepatitis C virus).
Assay [5] deals with NS4B^HA K162-TAG (azF) (hepatitis C virus).
Assay [6] addresses NS4B^HA M80-TAG (azF) (hepatitis C virus).
In assay [7] the target is NS5A^HA I15-TAG (azF) F36A/I37A/S38A/R112A/E148A (hepatitis C virus).
Assay [8] addresses NS5A^HA W84-TAG (azF) (hepatitis C virus).
Assay [9] has as its target NS5A^HA W84-TAG (azF) D18A (hepatitis C virus).

For “HA-tagged GST V125-TAG (azF) (from UniProt P0A9D2 1-201) (enzyme)”, in [1], the stoichiometry N was found to be 2.
The substance “NS4B^HA (HA-tagged HCV NS4B, wild type, in NS3-5B-4B^HA) (natural protein)” registered a stoichiometry N in assay [2] of 2.
In the case of “NS4B^HA A180-TAG (azF) (natural protein)”, the stoichiometry N in [3] came to 2.
With NS4B^HA I96-TAG (azF) (natural protein), in [4], the stoichiometry N was 2.
“NS4B^HA K162-TAG (azF) (natural protein)” displayed a stoichiometry N in [5] of 2.
NS4B^HA M80-TAG (azF) (natural protein) showed a stoichiometry N in assay [6] of 2.
In the case of “NS5A^HA I15-TAG (azF) F36A/I37A/S38A/R112A/E148A (natural protein)”, the percent of the control level (% of the control level) in assay [7] amounted to 55.
Turning to NS5A^HA W84-TAG (azF) (natural protein), in assay [8], the stoichiometry N turned out to be 2.
Consider “NS5A^HA W84-TAG (azF) D18A (natural protein)”, for which the percent of the control level (% of the control level) in assay [9] was determined as 66.

The term stoichiometry N denotes a count of units in the complex or per binding partner.
